System: activated recombinant MAP kinase
Assay: Phosphorylation of GFP Erk sensors by MAP kinase, ^32P incorporation
Format: biochemical
Settings: 10 μM substrate, 100 ng MAP kinase, 30 minutes at 30° C.; mean ± standard deviation of triplicates
Source text: Experiments were terminated and samples processed as described previously in subsection D.4. Results presented in Table X represent means of triplicate determinations ±standard deviations of ^32P-incorporation in washed pellets as described earlier.

^32P-Incorporation (CPM): 33361 ± 477 CPM
B1: Myelin Basic Protein: a well-characterized substrate of Erk kinase (protein, UniProt P02687 1-169, looked up)
Myelin basic protein: AAQKRPSQRSKYLASASTMDHARHGFLPRHRDTGILDSLGRFFGSDRGAPKRGSGKDGHHAARTTHYGSLPQKAQGHRPQDENPVVHFFKNIVTPRTPPPSQGKGRGLSLSRFSWGAEGQKPGFGYGGRASDYKSAHKGLKGHDAQGTLSKIFKLGGRDSRSGSPMARR
